Values of other authors as cited in publication PMC6995525, “Structure of the PUB Domain from Ubiquitin Regulatory X Domain Protein 1 (UBXD1) and Its Interaction with the p97 AAA+ ATPase” (Biomolecules, 2019).
pKd: −log10 of the molar value.

Molecular target: p97 last 10 residues (Homo sapiens) (UniProt P55072)
Sequence (P55072 whole entry, looked up): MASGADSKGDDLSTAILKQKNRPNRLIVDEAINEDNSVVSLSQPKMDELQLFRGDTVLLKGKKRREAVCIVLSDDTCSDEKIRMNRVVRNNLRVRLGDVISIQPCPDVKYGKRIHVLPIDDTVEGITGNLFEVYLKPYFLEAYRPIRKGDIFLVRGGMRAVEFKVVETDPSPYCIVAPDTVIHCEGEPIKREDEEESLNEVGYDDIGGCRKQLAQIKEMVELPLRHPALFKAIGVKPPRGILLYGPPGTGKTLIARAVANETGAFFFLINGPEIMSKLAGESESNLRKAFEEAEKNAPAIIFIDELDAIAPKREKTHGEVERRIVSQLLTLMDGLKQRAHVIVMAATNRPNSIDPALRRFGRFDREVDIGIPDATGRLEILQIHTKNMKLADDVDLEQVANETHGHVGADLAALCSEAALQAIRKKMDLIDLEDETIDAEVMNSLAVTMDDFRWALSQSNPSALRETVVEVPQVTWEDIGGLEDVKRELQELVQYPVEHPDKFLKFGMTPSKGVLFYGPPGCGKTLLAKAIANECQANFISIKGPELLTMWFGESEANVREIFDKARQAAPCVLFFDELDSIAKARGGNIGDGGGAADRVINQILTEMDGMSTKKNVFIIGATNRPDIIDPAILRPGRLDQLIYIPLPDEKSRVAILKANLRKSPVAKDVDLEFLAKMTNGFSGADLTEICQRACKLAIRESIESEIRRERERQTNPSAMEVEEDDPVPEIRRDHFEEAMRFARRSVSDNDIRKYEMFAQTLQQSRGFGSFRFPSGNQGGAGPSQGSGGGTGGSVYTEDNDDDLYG

Chain of UBXD1 PUB (Q9BZV1 172-247): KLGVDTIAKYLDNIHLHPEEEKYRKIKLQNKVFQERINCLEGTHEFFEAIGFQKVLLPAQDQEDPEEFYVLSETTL

pKd: 4.92
Substance: UBXD1 PUB (from UniProt Q9BZV1)
